Measurements: patent US20040105855A1 (Bristol-Myers Squibb, published 2004)

B1: mAb 39E3 (parental rat anti-human 4-1BB monoclonal antibody) (antibody, V domains shown)
VH: EVQLVESGGGLVKPGASLKLSCVASGFTFSDYWMSWVRQTPGKTMEWIGDIKNDGSYTNYAPSLTNRFTISRDNARSTLYLQMNNVRSEDTATYYCTRELTGT
VL: DIIMTQSPFSLAVSEGEMVTMNCKSSQSLLSSGNQKNYLAWYQQKPGQPPELLIYYASTRQSGVPDRFIGSGSGTDFLTLTISDVQAEDLADYYCLQYDRYPFT
notes: constant regions are not; also called parental antibody; parental mAb
B2: hu39E3.G4 (humanized 39E3, IgG4) (antibody, V domains shown)
VH: EVQLVESGGGLVQPGGSLRLSCAASGFTFSDYWMSWVRQAPGKGLEWVADIKNDGSYTNYAPSLTNRFTISRDNAKNSLYLQMNSLRAEDTAVYYCARELTGTWGQGTMVTVSS
VL: DIVMTQSPDSLAVSLGERATINCKSSQSLLSSGNQKNYLAWYQQKPGQPPKLLIYYASTRQSGVPDRFSGSGSGTDFTLTISSLQAEDVAVYYCLQYDRYPFTFGQGTKLEIKR
notes: Humanized IgG4 with a hinge mutation (after Angal et al.), made in CHO DG-44; also called humanized 39E3.G4 antibody; humanized anti-H4-1BB mAb

Legend:
[1] = molecular target: T1, hu4-1BBIg fusion protein (extracellular domain of H4-1BB fused to the constant domains of a human IgG1 … (human, UniProt Q07011 24-186; P01857 99-330 = IgG part); assay: SPR BIAcore 3000, antibody 10-100 nM over low-density immobilized H4-1BB (557 RU), global fit, Bivalent Analyte Model (KA1)
T1 construct: extracellular domain;domain: constant domains of a human IgG1 antibody; also called immobilized H4-1BB; Human 4-1BB receptor; not shown: thrombin cleavage site between the 4-1BB and Ig portions
Method: (§1) These studies were carried out on a BIAcore 3000 instrument (BIAcore Inc., Piscataway, N.J.). Dilutions of the antibodies were injected under identical conditions over sensorchip surfaces of immobilized H4-1BB.
(§2) Human 4-1BB receptor was immobilized covalently to a low density on a carboxy-methylated dextran surface of a BIAcore sensorchip (BIAcore Inc., Piscataway, N.J.). Through primary amino groups the fusion protein, injected at 2 μg/mL in 10 mM acetate buffer, pH 5.0, bind to an EDC/NHS-activated surface. […] After regenerating with 10 mM glycine, pH 2.0 the surface was ready for binding studies. Antibodies 39E3 and hu39E3.G4 were diluted to concentrations between 10 nM and 100 nM using HBS-EP buffer. All mAb dilutions were injected over two flow cells (FC) at a flow rate of 25 μl/minute. FC1 served as a negative control, FC2 had low density of human 4-1BB (557 RU). Bound anti-human 4-1BB mAbs were removed by regeneration with 10 mM Glycine pH 1.75.
(§3) Kinetic parameters were calculated with BIAevaluation program (version 3.1) (BIAcore Inc., Piscataway, N.J.). A global curve fit analysis was performed using a Bivalent Analyte Model (BIAcore Inc. Piscataway, N.J.). […] The binding affinities for the parental mAb, 39E3, and the humanized anti-H4-1BB mAb are shown below in Table 3.

[2] = molecular target: T1, hu4-1BBIg fusion protein (extracellular …); assay: SPR BIAcore 3000, antibody 10-100 nM over low-density immobilized H4-1BB (557 RU), global fit, Bivalent Analyte Model (KD1)
Method: as §1, §2, §3

[3] = molecular target: T1, hu4-1BBIg fusion protein (extracellular …); assay: SPR BIAcore 3000, antibody 10-100 nM over low-density immobilized H4-1BB (557 RU), global fit, Bivalent Analyte Model (Ka1)
Method: as §1, §2, §3

[4] = molecular target: T1, hu4-1BBIg fusion protein (extracellular …); assay: SPR BIAcore 3000, antibody 10-100 nM over low-density immobilized H4-1BB (557 RU), global fit, Bivalent Analyte Model (Kd1)
Method: as §1, §2, §3

T1 sequence (Q07011 other isoform, or with tags, fused parts or gaps): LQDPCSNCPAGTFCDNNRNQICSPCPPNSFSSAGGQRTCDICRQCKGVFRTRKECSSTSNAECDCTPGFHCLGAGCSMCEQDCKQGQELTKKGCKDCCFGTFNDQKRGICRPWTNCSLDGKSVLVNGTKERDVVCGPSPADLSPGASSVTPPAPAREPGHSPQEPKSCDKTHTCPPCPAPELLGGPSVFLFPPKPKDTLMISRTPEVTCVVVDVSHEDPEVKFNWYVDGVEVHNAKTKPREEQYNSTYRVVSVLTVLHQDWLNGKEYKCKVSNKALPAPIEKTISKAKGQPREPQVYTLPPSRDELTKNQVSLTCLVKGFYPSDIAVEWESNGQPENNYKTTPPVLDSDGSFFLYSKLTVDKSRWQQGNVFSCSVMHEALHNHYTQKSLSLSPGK

Binder | Ka [1] | Kd [2] | kon [3] | koff [4]
B1 | 1.48e+08 M⁻¹ | 6.7 nM | 7070 M⁻¹ s⁻¹ | 4.77e-05 s⁻¹
B2 | 1.87e+08 M⁻¹ | 5.3 nM | 4740 M⁻¹ s⁻¹ | 2.53e-05 s⁻¹
